According to patent publication US20140220159A1:

Key:
MDM2 = MDM2 (UniProt Q00987); assay: cell-based or functional assay
[1] = molecular target: HPV16 E6 (human papillomavirus type 16 (HPV16)) (UniProt P03126); assay: cell-based or functional assay
HPV16 E6 (human papillomavirus type 16 (HPV16)), sequence (P03126 whole entry): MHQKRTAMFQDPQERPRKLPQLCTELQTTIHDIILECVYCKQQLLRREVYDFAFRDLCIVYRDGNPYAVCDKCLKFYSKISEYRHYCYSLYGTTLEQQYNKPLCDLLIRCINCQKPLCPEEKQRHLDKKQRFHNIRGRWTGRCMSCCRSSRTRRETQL

exogenous CH1 domain of p300 (pcDNA3.1/CH1), sequence (Q09472 whole entry, the tested form may be a part): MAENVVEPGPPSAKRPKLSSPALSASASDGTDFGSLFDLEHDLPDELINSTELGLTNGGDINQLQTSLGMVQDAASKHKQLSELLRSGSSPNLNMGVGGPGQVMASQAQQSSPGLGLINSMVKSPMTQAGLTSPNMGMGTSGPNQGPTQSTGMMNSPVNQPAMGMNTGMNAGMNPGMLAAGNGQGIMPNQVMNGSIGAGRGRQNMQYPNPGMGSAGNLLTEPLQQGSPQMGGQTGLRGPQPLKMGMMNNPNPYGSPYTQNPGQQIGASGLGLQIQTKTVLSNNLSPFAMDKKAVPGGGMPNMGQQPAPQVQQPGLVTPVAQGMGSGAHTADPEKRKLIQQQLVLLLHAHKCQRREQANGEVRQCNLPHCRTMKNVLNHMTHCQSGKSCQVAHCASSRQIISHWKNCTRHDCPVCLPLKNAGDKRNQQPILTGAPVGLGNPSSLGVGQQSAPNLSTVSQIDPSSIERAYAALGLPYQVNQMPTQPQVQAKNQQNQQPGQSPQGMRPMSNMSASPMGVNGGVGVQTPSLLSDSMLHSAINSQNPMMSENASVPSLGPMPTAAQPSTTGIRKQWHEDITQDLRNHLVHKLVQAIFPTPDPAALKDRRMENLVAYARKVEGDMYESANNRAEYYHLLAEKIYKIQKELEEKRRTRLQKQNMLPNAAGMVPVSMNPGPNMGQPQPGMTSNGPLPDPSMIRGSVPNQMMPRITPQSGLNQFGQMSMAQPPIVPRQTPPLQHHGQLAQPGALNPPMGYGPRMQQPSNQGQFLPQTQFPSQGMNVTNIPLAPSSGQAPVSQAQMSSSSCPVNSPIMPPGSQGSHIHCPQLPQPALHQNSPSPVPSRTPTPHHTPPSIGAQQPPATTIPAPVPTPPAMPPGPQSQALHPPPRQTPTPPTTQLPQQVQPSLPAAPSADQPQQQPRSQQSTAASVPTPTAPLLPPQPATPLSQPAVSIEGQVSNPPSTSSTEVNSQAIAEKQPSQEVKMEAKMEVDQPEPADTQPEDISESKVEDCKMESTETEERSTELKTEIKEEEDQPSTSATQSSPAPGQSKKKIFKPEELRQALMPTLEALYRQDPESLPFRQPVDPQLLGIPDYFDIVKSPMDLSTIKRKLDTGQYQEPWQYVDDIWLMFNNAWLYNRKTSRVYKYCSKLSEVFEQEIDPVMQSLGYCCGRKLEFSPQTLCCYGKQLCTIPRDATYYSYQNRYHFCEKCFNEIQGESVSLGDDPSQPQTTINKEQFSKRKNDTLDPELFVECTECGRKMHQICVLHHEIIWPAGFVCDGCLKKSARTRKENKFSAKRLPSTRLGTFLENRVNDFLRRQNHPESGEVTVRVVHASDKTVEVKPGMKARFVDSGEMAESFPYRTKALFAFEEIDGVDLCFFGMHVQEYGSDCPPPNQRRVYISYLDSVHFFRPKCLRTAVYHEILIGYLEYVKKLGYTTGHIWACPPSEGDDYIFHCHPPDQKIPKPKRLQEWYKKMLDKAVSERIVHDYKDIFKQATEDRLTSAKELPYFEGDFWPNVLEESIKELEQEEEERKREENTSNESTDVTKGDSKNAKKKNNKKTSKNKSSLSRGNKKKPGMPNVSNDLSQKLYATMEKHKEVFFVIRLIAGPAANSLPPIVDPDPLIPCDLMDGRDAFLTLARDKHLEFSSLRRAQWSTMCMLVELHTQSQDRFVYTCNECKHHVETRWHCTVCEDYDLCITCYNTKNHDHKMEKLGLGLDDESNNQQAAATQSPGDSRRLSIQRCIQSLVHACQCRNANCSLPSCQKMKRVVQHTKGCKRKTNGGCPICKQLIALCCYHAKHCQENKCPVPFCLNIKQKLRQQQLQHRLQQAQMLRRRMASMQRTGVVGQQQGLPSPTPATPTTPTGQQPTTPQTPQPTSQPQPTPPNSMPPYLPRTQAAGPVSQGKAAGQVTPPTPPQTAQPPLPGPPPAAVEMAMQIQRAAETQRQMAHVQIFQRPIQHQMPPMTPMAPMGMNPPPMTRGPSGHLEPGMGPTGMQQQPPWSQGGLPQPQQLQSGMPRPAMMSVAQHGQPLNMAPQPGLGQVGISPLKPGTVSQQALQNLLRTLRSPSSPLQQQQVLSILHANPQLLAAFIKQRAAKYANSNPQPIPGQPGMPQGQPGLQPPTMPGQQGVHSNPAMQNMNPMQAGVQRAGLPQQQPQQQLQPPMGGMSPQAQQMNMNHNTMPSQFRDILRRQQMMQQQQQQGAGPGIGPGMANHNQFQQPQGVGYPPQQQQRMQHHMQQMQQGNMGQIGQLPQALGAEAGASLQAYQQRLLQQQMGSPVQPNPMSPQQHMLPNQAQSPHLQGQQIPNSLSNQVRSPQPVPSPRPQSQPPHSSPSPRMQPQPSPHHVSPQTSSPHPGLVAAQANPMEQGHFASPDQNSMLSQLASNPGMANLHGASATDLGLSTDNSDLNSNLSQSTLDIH
MDM2, sequence (Q00987 whole entry): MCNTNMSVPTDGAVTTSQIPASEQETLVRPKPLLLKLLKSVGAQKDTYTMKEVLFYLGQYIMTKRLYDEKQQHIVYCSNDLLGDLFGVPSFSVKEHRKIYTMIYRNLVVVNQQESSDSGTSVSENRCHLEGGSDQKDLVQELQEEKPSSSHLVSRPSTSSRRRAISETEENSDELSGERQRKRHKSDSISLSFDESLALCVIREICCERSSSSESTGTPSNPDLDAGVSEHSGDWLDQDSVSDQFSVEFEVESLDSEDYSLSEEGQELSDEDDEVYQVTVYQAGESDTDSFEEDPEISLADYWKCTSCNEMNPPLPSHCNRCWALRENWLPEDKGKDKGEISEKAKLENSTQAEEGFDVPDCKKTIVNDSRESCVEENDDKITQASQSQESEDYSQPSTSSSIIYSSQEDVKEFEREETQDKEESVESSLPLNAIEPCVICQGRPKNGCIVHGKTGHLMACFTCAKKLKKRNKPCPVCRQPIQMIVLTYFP

## exogenous CH1 domain of p300 (pcDNA3.1/CH1) (from UniProt Q09472 332-417)
MDM2
  p53 transcription activity (luciferase reporter), UMSCC74A/CH1 compared to UMSCC74A/empty cells: 68%
[1]
  p53 transcription activity (luciferase reporter), UMSCC47/CH1 cells: 85%
  p53 transcription activity (luciferase reporter), UPCI:SCC090/CH1 cells: 50%
